This note sets out measurements from patent US8168592B2 (Amgen Inc., priority 2005, dated 2012).

Where two headings read alike, the source gives them in different places. Some results are limits rather than exact numbers.

As a reminder, the MRT is a mean duration of stay, worked out from the concentration-time curve.

The nature of data set [1]: stability in undiluted Cynomolgus plasma at 37° C. by ELISA. The data set is classed as in vitro ADME. The settings on record: cynomolgus monkey. An excerpt:
(§1) Examples of this approach are the replacement of arginine (R) with citrulline, and phenylalanine (F) with 3-(1-naphthyl)alanine. We have also cyclized side-chain to side-chain (for example, i, i+4 residues) to form ring structures which also increase overall plasma stability (See, e.g., FIG. 3 and FIG. 13).
In general terms: In an ELISA, binding on a coated surface is turned into a signal by an enzyme label.

The nature of data set [2]: stability in undiluted rat plasma at 37° C. by ELISA. The data set is classed as in vitro ADME.
Description: as §1

The nature of data set [3]: stability in undiluted human plasma at 37° C. by ELISA. The data set is classed as in vitro ADME.
Description: as §1

For data set [4] the following is noted: rat, in vivo, 2 mg/kg.
Description: Rat pharmacokinetic studies. […] There were three rats per group (n=3), each weighing 250-325 g. Each group received either a 2 mg/kg intravenous or subcutaneous discrete administration. The approximate dose volume was 0.3 mL per rat. Approximately 0.25 mL of whole blood was taken per time point at the following post-dose collection times for the intravenous groups (in hours): 0.083, 0.25, 0.5, 1, 2, 4, 6, 8, 24, 48, 72, 96 and the following time points for the subcutaneous groups (in hours): 0.25, 0.5, 1, 2, 4, 6, 8, 24, 48, 72, 96. Whole blood samples were collected in microtainer vials containing EDTA as anticoagulant and were kept on wet ice until processed for plasma. The plasma was obtained by centrifuging the whole blood for approximately 5 min at 11,500 rpm. Plasma was transferred to new tubes and stored frozen at approximately −70° C. until quantitative analysis. […] The individual sample concentrations for each time point were averaged (n=3) within a given dose group using Excel 2000 software. The averaged plasma concentration-time data were analyzed by noncompartmental methods using WinNonlin v.3.3 software. Nominal sample times were used in the pharmacokinetic analysis. The area under the concentration-time curve was calculated using the linear/log trapezoidal method to determine exposure.

As to “Ac-WVTH[Cit]LAGLLS[Cit]SGGVV[hArg]K(20 KPEGald)NFVPTDVGP[1-Nal]AF-NH2 (WVTHXLAGLLSXSGGVVXKNFVPTDVGPXAF; not fully specified; N-acetyl, C-amide, 20 kDa PEG, Cit, hArg, 1-Nal; CGRP peptide; MOD_RES (1)..(1): …ON; MISC_FEATURE (5)..(5): xaa=citrulline; MISC_FEATURE (12)..(12): xaa=citrulline; MISC_FEATURE (18)..(18): xaa=homoarginine; MISC_FEATURE (19)..(19): PEGylated; MISC_FEATURE (29)..(29): xaa=3-(1-naphthyl)alanine; MOD_RES (31)..(31): AMI) [SEQ ID NO: 173]”, the “t1/2 in Cynomolgus plasma” value in data set [1] is over 24 h. For the same substance, the “t1/2 in rat plasma” value in data set [2] was in the range of 8 to 9 h. For the same substance, in data set [3], the “t1/2 in human plasma” value is on record as over 24 h. In data set [4] (iv), the AUC0-inf was determined as 80996 ng·h/mL, the AUC0-t was 80440 ng·h/mL and the MRT came to 4.97 h. In data set [4] (sc), this substance had an AUC0-t of 4385 ng·h/mL and a F % of 5%.
